Measured values taken from US20020034537A1, “Cationic diagnostic, imaging and therapeutic agents associated with activated vascular sites” (priority 2000, published 2002).
Read-outs that look alike come from different tables or passages of the source.

What was measured:
[1] = Time constant of plasma clearance; assay type: in vivo, SCID mice; settings: i.v. bolus, arterial blood within 30 min
[2] = Isoelectric focusing of charge-modified proteins; assay type: physicochemical
Protocol: Isoelectric points of the proteins were determined by isoelectric focusing using polyacrylamide gel slabs on a vertical electrofocusing apparatus. pl was quantified by comparison with protein standards (Bio-Rad) after Coomassie Blue staining of the gels. The molecular weights of the proteins were analyzed by SDS-PAGE (Mini-Protean II; Bio-Rad) with and without reducing agent P-mercaptoethanol in the sample buffer.

[3] = normal tissues, Adamson et al. (1988); cited from earlier work
[4] = Data from Yuan et al. (1995); cited from earlier work
[5] = Data from Yuan et al. (1995); cited from earlier work; remark: listed apart in the source

Substance: Anionized BSA: rhodamine-labeled bovine serum albumin anionized by succinylation
- Median K, time constant of concentration decay in the plasma [1]: 40.8 100s

Substance: Cationized BSA: rhodamine-labeled bovine serum albumin cationized by conjugation with hexamethylenediamine
- Median K, time constant of concentration decay in the plasma [1]: 12.7 100s
- pI (range) [2]: 8.6-9.1

Substance: (x-lactalbumin: protein, MW=14,176; net charge −10 (Adamson et al. 1988)
- microvascular permeability relative to ribonuclease [3]: approximately 50%

Substance: Native BSA: fluorescently labeled native bovine serum albumin, data from Yuan et al. (1995)
- pI (range) [4]: 4.5
- Median K, time constant of concentration decay in the plasma [5]: 80.5 100s
